Measurements taken from patent US20170131282A1.

Key:
Test in all cases: cell-based or functional assay
[1] = molecular target: mouse chemokine CCL7 secreted in conditioned media of mouse adipocytes / adipose tissue (mouse) (UniProt Q03366)
[2] = molecular target: human chemokine receptor CCR3 on human prostate tumor cells (PC-3, Du-145) (human) (UniProt P51677)
[3] = molecular target: mouse chemokine receptor CCR3 (NM_009914) on mouse prostate tumor cells (TRAMP-C1P3, RM1-BM) (mouse) (UniProt P51678)
Chain of UniProt P51678 (P51678 whole entry): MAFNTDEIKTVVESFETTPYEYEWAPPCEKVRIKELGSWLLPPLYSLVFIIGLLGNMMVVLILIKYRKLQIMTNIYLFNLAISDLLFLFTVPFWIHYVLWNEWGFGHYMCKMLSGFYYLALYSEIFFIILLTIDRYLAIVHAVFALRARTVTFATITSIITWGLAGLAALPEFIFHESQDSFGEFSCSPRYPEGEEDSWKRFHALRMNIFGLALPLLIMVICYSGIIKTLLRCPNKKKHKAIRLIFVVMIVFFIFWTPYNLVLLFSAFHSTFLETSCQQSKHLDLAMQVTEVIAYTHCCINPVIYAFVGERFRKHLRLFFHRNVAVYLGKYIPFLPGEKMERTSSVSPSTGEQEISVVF

Chain of UniProt Q03366 (Q03366 24-97): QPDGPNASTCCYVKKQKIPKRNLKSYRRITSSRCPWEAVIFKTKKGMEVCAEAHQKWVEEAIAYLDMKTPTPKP
Chain of UniProt P51677 (P51677 whole entry): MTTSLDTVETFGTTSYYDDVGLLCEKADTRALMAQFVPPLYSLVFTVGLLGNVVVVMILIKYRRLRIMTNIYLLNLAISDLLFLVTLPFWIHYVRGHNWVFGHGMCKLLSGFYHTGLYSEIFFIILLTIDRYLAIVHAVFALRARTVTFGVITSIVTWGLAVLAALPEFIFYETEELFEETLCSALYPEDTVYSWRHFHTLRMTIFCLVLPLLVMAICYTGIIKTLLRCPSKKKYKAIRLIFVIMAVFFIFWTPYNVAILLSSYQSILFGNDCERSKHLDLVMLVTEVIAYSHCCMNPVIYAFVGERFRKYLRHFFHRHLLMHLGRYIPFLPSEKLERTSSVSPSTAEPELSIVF

Row | inhibition of migration of PC-3 and Du-145 cells against CM-Ad (Boyden chamber) [1] | inhibition of migration of PC-3 cells against CM of HFD AT-mu-PG (obese mice) [1] | inhibition of migration of PC-3 cells against CM of ND AT-mu-PG (normal-weight mice) [1] | migration of PC-3 and Du-145 prostate cells (Boyden chamber), dose from which the effect is significant [2] | chemotaxis of TRAMP-C1P3 cells (Boyden chamber), dose from which it is seen [3] | migration of RM1-BM cells (Boyden chamber) [3] | Substance
1 | 50 % inhibition | 60 % inhibition | 25 % inhibition |  |  |  | blocking antibody targeted against CCL7 (AF-456-NA, R&D System)
2 |  |  |  | > 50 ng/mL | > 50 ng/mL | 100 ng/mL | human chemokine CCL7 (from UniProt P80098 24-99) (ligand)
